One data set addresses Cys36 (UniProt position 37, FTATWCGPCKM). The data set is described as follows: chemical modification (iodoacetamide alkylation) with MALDI-TOF mass spectrometry. The following applies: not stated for the alkylation step (pre-reduction at 25 °C); 200 mM acetate/acetic acid (pH 3.5-5.5); 100 mM phosphate (pH 6.0-8.0); 100 mM HEPES-NaOH (pH 7.5-8.5); 100 mM glycine (above pH 8.5); carry-over of 50 mM phosphate pH 7.1 and TCEP from pre-reduction; fully reduced (TCEP), both active-site cysteines free thiols.

A further data set concerns the target Cys39 (UniProt position 40, TWCGPCKMIAP). The data set is described as above. As to conditions: not stated for the alkylation step (pre-reduction at 25 °C); 200 mM acetate/acetic acid (pH 3.5-5.5); 100 mM phosphate (pH 6.0-8.0); 100 mM HEPES-NaOH (pH 7.5-8.5); 100 mM glycine (above pH 8.5); carry-over of 40 mM phosphate pH 7.1 from pre-alkylation; Cys36 pre-alkylated (carbamidomethylated), Cys39 free thiol.

“Thioredoxin h1 (CrTRXh1) (Chlamydomonas reinhardtii)”: in the data set with Cys36, the pKa stood at 6.63 ± 0.13.

“Thioredoxin h1 (CrTRXh1), monoalkylated at Cys36 (CrTRXh1-CAM) (Chlamydomonas reinhardtii)”: the pKa in the data set with Cys39 is listed as 9.53 ± 0.12.
